{"source": "patent US20180125988", "system": "AC1254 (CCD1-BSRS1-AE713)", "sequence (chain, as listed by the source)": "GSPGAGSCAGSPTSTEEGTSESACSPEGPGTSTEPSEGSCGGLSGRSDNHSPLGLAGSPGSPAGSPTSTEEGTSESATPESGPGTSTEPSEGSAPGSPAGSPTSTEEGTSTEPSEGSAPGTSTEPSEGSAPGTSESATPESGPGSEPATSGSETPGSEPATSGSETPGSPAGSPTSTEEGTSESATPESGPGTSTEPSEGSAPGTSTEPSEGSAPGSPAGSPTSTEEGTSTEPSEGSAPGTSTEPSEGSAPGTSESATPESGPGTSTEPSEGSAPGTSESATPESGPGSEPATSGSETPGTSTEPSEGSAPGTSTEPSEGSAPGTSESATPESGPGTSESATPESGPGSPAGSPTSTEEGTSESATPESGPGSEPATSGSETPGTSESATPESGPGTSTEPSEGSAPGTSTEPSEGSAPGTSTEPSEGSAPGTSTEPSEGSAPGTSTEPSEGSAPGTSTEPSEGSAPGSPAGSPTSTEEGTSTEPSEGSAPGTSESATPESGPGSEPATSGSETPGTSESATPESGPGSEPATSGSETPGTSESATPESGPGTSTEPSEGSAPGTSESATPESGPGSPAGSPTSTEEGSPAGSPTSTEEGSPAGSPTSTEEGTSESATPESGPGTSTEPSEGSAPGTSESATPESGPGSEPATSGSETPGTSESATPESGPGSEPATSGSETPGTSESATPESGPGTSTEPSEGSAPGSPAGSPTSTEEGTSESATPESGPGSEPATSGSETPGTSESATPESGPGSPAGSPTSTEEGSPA", "data": [{"substance": "recombinant mouse MMP-2", "values": [{"measurement": "proteolytic cleavage at the PCM (SDS-PAGE, C4 RP-HPLC); enzyme:substrate 1:680, 2 h, 37 C", "result": "all proteases tested here cleaved the construct as intended, with varying degree of catalytic efficiency"}]}, {"substance": "recombinant human u-plasminogen activator (uPA)", "values": [{"measurement": "proteolytic cleavage at the PCM (SDS-PAGE, C4 RP-HPLC); enzyme:substrate 1:12.5, 2 h, 37 C", "result": "all proteases tested here cleaved the construct as intended, with varying degree of catalytic efficiency"}]}]}
